Test results published in patent publication US20210163601A1 (Amgen, published 2021).

T1: Soluble ASGR-1 (recombinant, biotinylated) (human, UniProt P07306 62-291, limits assumed, biotinylated)
T1 construct: also called recombinant, soluble ASGR-1 biotinylated protein
T1 sequence: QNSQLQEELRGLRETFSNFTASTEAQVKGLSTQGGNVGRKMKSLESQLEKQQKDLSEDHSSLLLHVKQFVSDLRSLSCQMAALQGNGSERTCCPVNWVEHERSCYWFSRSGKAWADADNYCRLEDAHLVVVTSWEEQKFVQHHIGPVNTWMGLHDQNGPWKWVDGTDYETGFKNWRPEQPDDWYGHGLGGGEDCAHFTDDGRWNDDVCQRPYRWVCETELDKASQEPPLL

B1: 54E9 (antibody, V domains shown)
VH: QVQLVQSGAEVKKPGASVKVSCKASGYTFNSYGISWVRLAPGQGLEWMGWISAYNGNTKNAQKLQGRVTMTTDTSTSTAYMELRSLRSDDTAVYYCARHDFWSGYYKGMDVWGQGTTVTVSS
VL: not shown
notes: Tested as hybridoma supernatant
B2: 194A4 (antibody, V domains shown)
VH: QVQLVQSGTEVKKPGASLKVSCKASGYTFTVYYLNWVRQAPGQGLEWMGWINPNSGGTNYAQKFQGRVTMTRDTSISTAYMELSRLRSDDTAVYYCARGYDILTGWGQGTLVTVSS
VL: EIVLTQSPGTLSLSPGERATLSCRASRGVSNIYLAWYQQKPGQAPRLLIYGASNRATGIPDRFSGSGSGTDFTLTISRLEPEDFAVYYCQHNDYSMFTFGPGTKVDIK
notes: as for B1
B3: 4B1 (antibody, V domains shown)
VH: QVQLQESGPGLVKPSETLSLTCSVSGDSISSYSWSWIRQPAGKGLEWIGRIYTSGSTNYIPSLKSRITMSVDTSKKQFSLKLSSVTAADTAVYYCARDLKSSGCLFFDYWGQGTLVTVSS
VL: DIQMTQSPSSLSASVGDRVTITCRASHTIRTYLNWYQQKPGKAPKLLIYAASSLQSGVPSRINGSGSGTDFTLTITNLQPEDFATYYCQQSYNISFTFGPGTKVDIK
notes: as for B1
B4: 194C1 (antibody, V domains shown)
VH: QVQLVESGGGVVQPGRSLRLSCAASGFTFSSYGMHWVRQAPGKGLEWVAVIWYDGSNEHYADSVKGRFTISRDNSKNTLYLQMNSLRAEDTAVYYCARNRGVGYYGLDVWGQGTTVTVSS
VL: DIQMTQSPSSLSASVGDRVTITCRASQGISNYLAWFQQKPGKAPKSLIYAASSLQSGVPSKFSGSGSGTDFTLTISSLQPEDFATYYCLHYLTYPLTFGGGTKVEIK
notes: as for B1
B5: 197G3 (antibody, V domains shown)
VH: QVQLVESGGGVVQPGRSLRLSCVASGFTFSSHGMHWVRQAPGKGLEWVAVIWYDGSNKNYADSVKGRFTISRDNSKNTLYLQMNSLRAEDTAVYYCARDPSVGYDGMDVWGQGTTVTVSS
VL: DIQMTQSPSSLSASVGDRVTITCRASQGIGNHLAWFQQKPGKAPKSLIYAASSLQSGVPSKFSGSRSGTDFSLTISSLQPEDFATYYCQQYSNYPVTFGPGTKVDIK
notes: as for B1
B6: 190F8 (antibody, V domains shown)
VH: QVQLVESGGGVVQPGRSLRLSCAASGFTFSTYGMHWVRQAPGKGLEWVAVIWYDGSNKNYADSVKGRFTISRDNSKNTLYLQMNSLRAEDTAVYYCARDQGVGYDGLDVWGQGTTVTVSS
VL: DIQMTQSPSSLSASVGDRVTITCRTSQGIGNYLAWFQQKPGKAPKSLLYKASSLQSGVPSKFSGSGSGTDFTLTISSLQPEDFATYYCQQYMTYPLTFGGGTKVEIK
notes: as for B1
B7: 191G1 (antibody, V domains shown)
VH: QVQLVESGGGVVQPGRSLRLSCAASGFTFSSYGMHWVRQAPGKGLEWVAVIWYDGSNEHYADSVKGRFTISRDNSKNTLYLQMNSLRAEDTAVYYCARDRGVGYYGLDVWGQGTTVTVSS
VL: DIQMTQSPSSLSASVGDRVTITCRASQGISNYLAWFQQKPGKAPKSLIYAASSLQSGVPSKFSGSGSGTDFTLTISSLQPEDFATYYCQHYLTYPLTFGGGTKVEIK
notes: as for B1
B8: 191G10 (antibody, V domains shown)
VH: QVQLVESGGGVVQPGRSLRLSCAASGFTFSSYGMHWVRQAPGKGLEWVAVIWYDGSNKNYADSVKGRFTISRDNSKNTLYLQMNSLRAEDTAVYYCARDQGVGYDGLDVWGQGTTVTVSS
VL: DIQMTQSPSSLSASVGDRVTITCRTSQGIGKYLAWFQQKPGKAPKSLLYKVSSLQSGVPSKFSGSGSGTDFTLTISSLQPEDFATYYCQQYMTYPLTFGGGTKVEIK
notes: as for B1
B9: 198G3 (antibody, V domains shown)
VH: QVQLVESGGGVVQPGRSLKLSCAASGFTFSTYGMHWVRQAPGKGLEWVAVIWYDGTNKNYADSVKGRFTISRDNSKNTLCLQMNSLRAEDTAVYYCARDQGVGYDGLDVWGQGTTVTVSS
VL: DIQMAQSPSSLSASVGDRVTITCRTSQGIGKYLAWFQQKPGKAPKSLLYKASSLQGGVPSKFSGSGSGTDFTLTISSLQPEDFATYYCQQYMTYPLTFGGGTKVEIK
notes: as for B1
B10: 75G3 (antibody, V domains shown)
VH: QVQLQQWGAGLLKPSETLSLTCAVYGGSLSGSYWSWIRQPPGKGLEWIGEINLSGSTNYNPSLKSRVTISVDTSKSQFSLTLRSVTAADTAVYYCARDYGGLDYWGQGTLVTVSS
VL: EIVLTQSPGTLSLSPGERATLSCRARQNVDSSYLAWYQQKPGQAPRLLIYGASSRATGIPDRFSGSGSGTDFTLTISRLEPEDFAVFYCQQYERSPWTFGQGTKVEIK
notes: as for B1
B11: 7E11 (antibody, V domains shown)
VH: QVQLVESGGGVVQPGRSLRLSCAASGFTFSSFGMHWVRQAPGKGLEWVAIIWHDGSNKYYADSVKGRFTISRDNSNNTLYLQMSSLRAEDTAVYYCARDLSMGGMDVWGQGTTVTVSS
VL: DIQMTQSPSSLSASVGDRVTIACRASQNIISYLNWYQQKPGKAPKFLIYTASSLQSGVPSRFSGSGSGTDFTLTISSLQPEDFAIYYCQQTYSTPLTFGGGTKVEIK
notes: as for B1
B12: 7G4 (antibody, V domains shown)
VH: QVQLVESGGGVVQPGRSLRLSCAASGFTFNNYVMHWVRQAPGKGLEWVAVIWYDGSNKYYADSVKGRFTISRDNSKNTLYLQMTSLRAEDTAVYYCAREKYSSNWYDYGMDVWGQGTTVTVSS
VL: DIQMTQSPSSLSASVGDRVTITCRASQGIRNDLGWYQQRPGKAPKRLIYAASSLQSGVPSRFSGSGSGTEFTLTISSLQPEDSATYYCLHQYSYPRTFGQGTKVEIK
notes: as for B1
B13: 5E5 (antibody, V domains shown)
VH: QVQLVESGGGVVQPGRSLRLSCAASGFTFSNYVMHWVRQAPGKGLEWVAVIWYDGSNKYYADSVKGRFTISRDNSKNTLYLQMNSLRAEDTAVYYCTREVYSSGWYDYGMDVWGQGTTVTVSS
VL: DIQMTQSPSSLSASVGDRVTITCRASQGIRNDLGWYQQKPGKAPKRLIYAASSLQSGVPSRFSGSGSGTEFTLTISSLQPEDFATYYCLQHYSYPRTFGQGTKVEVK
notes: as for B1
B14: 22G5 (antibody, V domains shown)
VH: EVQLLESGGGLVQPGGSLRLSCAASGFTFSSYAMNWVRQAPGMGLEWVSVISRSGGYTYYADSVKGRFTISRDNSKNTLYLQMNSLRAEDTAVYYCASRLAVAGSEAFDIWGQGTLVTVSS
VL: DIQMTQSPSSLSASVGDRVTITCRASQNISSYLNWYQQKQGKAPKLLIYAASSLQNGVPSRFSGRGSGTDFTLTISSLQPEDFATYYCQQSYRTPLFTFGPGTKVDFK
notes: as for B1
B15: 4H6 (antibody, V domains shown)
VH: QVQLVQSGAEVKKPGASVKVSCKASGYTFTDYYLHWVRQAPGQGLEWMGWIHPNSGGTNYAQKFQGRVTMTRDTSISTAYMGLSSLRSDDTAVYYCARDGTSSFDYWGQGTLVTVSS
VL: DIQMTQSPSSVSASVGDRVTITCRASQGISRWLAWYQQKPGKAPKLLIYGASSLQSGVPSRFSGSGSGTDFTLTISSLQPEDFAIYYCQQANSFPFTFGPGTKVDIK
notes: as for B1
B16: 72G9 (antibody, V domains shown)
VH: EVQLVESGGGLVKPGGSLRLSCAASGFTFSSYSMNWVRQAPGKGLEWVSSISGSSSYIYYADSVKGRFTISRDNAKNSLYLQMNSLRAEDTAVYFCARGGSRGFDPWGQGTLVTVSS
VL: DIQMTQSPSSLSASVGDRVTITCRASQSITSYLNWYQQKPGKAPKLLIYTASSLQSGVPSRFSGSGSGTDFTLTISSLQPEDFATYYCQQSHSFPFTFGPGTKVDIK
notes: as for B1
B17: 25A4 (antibody, V domains shown)
VH: QVLLVQSGAEVKRPGASVKVSCKASGYTFTNYDINWVRQATGQGLEWMGWMYPNSGNTGYAQKFQGRVTMTRNTSISTAYMELSSLRSEDTAVYYCASSSGWYYFDYWGQGTLVTVSS
VL: DIVMTQFPDSLAVSLGERATIKCKSSQSVLYSSHNNNYLAWYQQKPGQPPKLLLYWASTRESGVPDRFSGSGSGTEFTLTISSLEAEDVAVYYCQQYYSTPPTFGQGTKVEIK
notes: as for B1
B18: 26C4 (antibody, V domains shown)
VH: QVQLVQSGAEVKKPGASVKVSCKASGYTFTNYDINWVRQASGQGLEWMGWMNPNSGNTGYAQRFQGRVTMTRNTSINTAYMELSSLRSEDTAVYYCASSSGWYYFDYWGQGTLVTVSS
VL: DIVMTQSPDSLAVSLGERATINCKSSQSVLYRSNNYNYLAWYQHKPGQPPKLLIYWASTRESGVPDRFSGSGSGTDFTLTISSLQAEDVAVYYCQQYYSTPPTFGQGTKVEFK
notes: as for B1
B19: 4A2 (antibody, V domains shown)
VH: QVQLVQSGTEVKKPGASVKVSCKASGYTFTNYDINWVRQATGQGLEWMGWMHPNSGNTGYAQKFQGRVTLTRNTSISTAYMELSSLRSEDTAVYYCASSSGWYYFDYWGQGTLVTVSS
VL: DIVMTQSPDSLAVSLGERATINCKSSQSILHSSNNNNYLAWFQQKPGQPPKLLLYWASTRESGVPDRFSGSGSGTDFTLTISSLQPEDVAVYYCQQYYNTPVTFGPGTKVGIK
notes: as for B1
B20: 29H8 (antibody, V domains shown)
VH: QVQLVQSGAEVQKPGASVKVSCKASGYTFTNYDINWVRQATGQGLEWMGWMNPNSGNTGYAQRFQGRVTMTRNTSISAAYMELSSLRSEDTAVYYCASSSGWYYFDYWGQGTLVTVSS
VL: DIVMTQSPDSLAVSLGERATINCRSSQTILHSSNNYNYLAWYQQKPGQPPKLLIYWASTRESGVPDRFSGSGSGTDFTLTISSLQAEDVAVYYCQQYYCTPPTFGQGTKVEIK
notes: as for B1
B21: 184E7 (antibody, V domains shown)
VH: QVQLVQSGAEVKTPGASVKVSCRASGYTFTSYNMHWVRQVPGQGLEWMGWINPNNGGSNYTQKFQGRVTMTRDTSISTAYMELSRLRSDDTAVYYCARKFGDWGQGTLVTVSS
VL: DIQMTQSPSSRSASIGERVTITCRASQGISNYLAWIQQKPGTAPKSLIYAASSLQSGVSSRFSGSGFGTDFTITISSVQREDFATYYCQQYNGYPFTFGHGTKVDIK
notes: as for B1
B22: 48B12 (antibody, V domains shown)
VH: EVQLLESGGGLVQPGGSLRLSCAASGFTFSSYAMNWVRQAPGKGLEWVSAISGRGGNTFYADSVKGRFTISRDNSKNTLYLQMNSLRAEDTAVYYCAKRETYNWNYEGFDYWGQGTLVTVSS
VL: SYELTQPPSVSVSPGQTARITCSGDALPKKYAYWYQQKSGQAPVLVIYEDSKRPSGIPERFSGSSSGTMATLTISGAQVEDEADYYCNSTDSSGNHVVFGGGTKLTVL
notes: as for B1

What follows are binders tested against T1, Soluble ASGR-1 (recombinant, …) (assay: limiting antigen bead FACS; biotinylated soluble ASGR-1 coated at 2.5 ng/mL on LumAvidin beads;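 also: hybridoma supernatants of ligand-competing antibodies bound to antigen-loaded beads, read by flow cytometry on an iQue Screener in calcium-containing buffer, higher fluorescence meaning stronger relative affinity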).

First: B1
Second: B2
The “FACS Geomean” value of the first is lower: 6490 for the first, 38900 for the second.

Compared with B3, B4 is higher in “FACS Geomean” value: 10100 for the first, 16900 for the second.

Going from B5 to B6, the “FACS Geomean” value falls from 17700 to 13900.

First: B7
Second: B8
The “FACS Geomean” value of the first is lower: 9550 for the first, 24200 for the second.

First: B9
Second: B10
The “FACS Geomean” value of the first is lower: 26000 for the first, 35800 for the second.

Going from B11 to B12, the “FACS Geomean” value rises from 4660 to 6800.

First: B13
Second: B14
The “FACS Geomean” value of the first is higher: 3280 for the first, 1080 for the second.

Compared with B15, B16 is higher in “FACS Geomean” value: 2990 for the first, 34000 for the second.

First: B17
Second: B18
The “FACS Geomean” value of the first is higher: 18000 for the first, 12000 for the second.

Going from B19 to B20, the “FACS Geomean” value falls from 16600 to 12200.

Going from B21 to B22, the “FACS Geomean” value falls from 40200 to 27000.
